# From patent US20240033318A1 (OHIO STATE INNOVATION FOUNDATION, published 2024)
# Non-standard residues stand in square brackets, D forms with d. Primed or numbered codes have the meaning given here. No end group written: not given here. *: point of attachment. FITC′ = fluorescein isothiocyanate (fluorescein label attached to the Lys side chain); FITC″ = fluorescein isothiocyanate, fluorescein thiocarbamoyl on Lys NZ; FITC = O=C1OC2(c3ccc(O)cc3Oc3cc(O)ccc32)c2ccc(NC(=S)*)cc21; Benzoyl(2,3-Cl2) = O=C(c1cccc(Cl)c1Cl)*; Phe(4-F) = N[C@@H](Cc1ccc(F)cc1)C(=O)O; Tle = CC(C)(C)[C@H](N)C(=O)O; acyl = not defined here; Bz = O=C(c1ccccc1)*; βAla = NCCC(=O)O
# Assays:
# [1] = target: T1, calcineurin expressed as the glutathione S-transferase fusion protein (GST-CN) (UniProt Q08209 2-347); test: FA-based competition assay, inhibition of the binding of peptide 14 to CN
# T1 construct: also called CN-GST; recombinant GST-CN; not shown: glutathione S-transferase (GST) fusion partner
# Protocol: (§1) Serial dilutions of competitor peptides were prepared in PBS with 0.01% Trition-X100 and then added to the incubation solution and equilibrated at RT with gentle mixing for 1 h. Samples were pipetted into 384-well black microplates and FP signal was measured using a TECAN Infinite M1000 plate reader and analyzed using GraphPad PRISM v.6.
# (§2) Additional characterization of CNI95 (including in vivo evaluation) is currently ongoing.
# [2] = target: T1, calcineurin expressed as the …; test: fluorescence anisotropy (FA), direct binding of FITC-labeled peptide
# Protocol: (§3) Fluorescence Polarization. Fluorescence polarization (FP) experiments were carried out to measure binding affinity in both direct and competitive binding experiments using GST-CN and peptides prepared as mentioned previously. […] Solutions were incubated for 1 h at RT with gentle mixing and then pipetted into black 384-well microplates. Fluorescence polarization was measured on a TECAN Infinite M1000 plate reader and titration curves were fitted using both KaelidaGraph v 3.6 and GraphPad PRISM to the equation: […]
# as §2
# [3] = target: T1, calcineurin expressed as the …; test: FP competition with FITC-labeled compound 35 for GST-CN
# Protocol: (§4) Serial dilutions of unlabeled inhibitor were prepared in pH 7.4 PBS containing 0.01% Triton-X100, to which was added the incubation solution and mixed for 1 h at RT. 20 μL aliquots from each concentration were added into 384-well black-on-black microplates and fluorescence polarization was measured using a TECAN Infinite M1000 plate reader. IC50 values were calculated using GraphPad PRISM v. 7.
# [4] = target: T1, calcineurin expressed as the …; test: FP competition: 15 nM FITC-labeled compound 35 as probe, 15 nM GST-CN, unlabeled inhibitor titrated
# Protocol: as §4
# [5] = target: T1, calcineurin expressed as the …; test: fluorescence anisotropy (FA), direct binding of FITC-labeled peptide to GST-CN
# Protocol: as §3
# [6] = target: mouse plasma proteins; test: rapid equilibrium dialysis (RED) of CNI103 in mouse plasma, 37° C., 5 hours, LC/MS/MS
# [7] = target: T1, calcineurin expressed as the …; test: FP competition (Condition E): 50 nM probe, 50 nM CN-GST, unlabeled compound titrated
# Protocol: Binding Affinity. […] Serial dilutions of each unlabeled compound were prepared in pH 7.4 PBS containing 0.01% Triton-X100, to which was added the incubation solution and mixed for 1 hr at RT after which 20 μL sample was pipetted into 384-well black-on-black microplates and fluorescence polarization was measured using a TECAN Infinite M1000 plate reader. IC₅₀ values were calculated using GraphPad PRISM v.
# [8] = target: T1, calcineurin expressed as the …; test: direct binding by FA
# Protocol: as §3
# [9] = target: T1, calcineurin expressed as the …; test: FA-based competition (FP): 50 nM FITC-labeled peptide 14 as probe, 100 nM GST-CN, competitor titrated
# Protocol: as §1
# [10] = target: T1, calcineurin expressed as the …; test: fluorescence anisotropy (FA), direct binding
# T1 sequence (Q08209 2-347): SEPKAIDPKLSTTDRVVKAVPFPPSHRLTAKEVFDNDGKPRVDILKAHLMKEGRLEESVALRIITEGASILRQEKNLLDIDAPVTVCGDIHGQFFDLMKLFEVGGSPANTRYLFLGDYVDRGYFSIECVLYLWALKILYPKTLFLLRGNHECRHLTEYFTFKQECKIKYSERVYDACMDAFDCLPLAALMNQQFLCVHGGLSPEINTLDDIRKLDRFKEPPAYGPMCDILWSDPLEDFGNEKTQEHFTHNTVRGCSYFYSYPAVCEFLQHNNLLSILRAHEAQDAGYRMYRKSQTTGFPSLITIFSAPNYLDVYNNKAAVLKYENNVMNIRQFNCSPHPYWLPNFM
binder,measurement,setting,value
"XIXITQHLSKFXRRRRQ (not fully specified; sequence of peptide 14 (Dcb-ZIZIT-Gln-His-leu-Ser) conjugated to CPP9, cyclo(fΦRrRrQ), through a miniPEG-Lys linker; Z = Tle; D-Leu) [CNI95 (unlabeled)]",fold higher potency (relative to CNI93),[1],~5 fold
"XIXITQHLSKFXRRRRQ (not fully specified; sequence of peptide 14 (Dcb-ZIZIT-Gln-His-leu-Ser) conjugated to CPP9, cyclo(fΦRrRrQ), through a miniPEG-Lys linker; FITC at the C-terminus; Z = Tle; D-Leu, also called FITC-labeled CNI95) [CNI95 labeled at the C-terminus with FITC]",Kd,[2],17 nM
"XXXITQHLSXKQRRRRXF (not fully specified; N-terminal DCNA (2,3-dichlorisonicotinamide); Tle; Chg = L-cyclohexylglycine; Bhv = L-β-hydroxyvaline; D-Leu; βAla; Lys side chain carrying cyclo-(Gln-(D-Arg)-Arg-(D-Arg)-Arg-(2-Nal)-(D-Phe)); C-terminal amide)",fold higher potency (relative to CNI103),[3],~5 fold
same,IC50,[4],44.9 nM
Bz-[Tle]I[Tle]ITGPHEEYK(FITC″)-NH2 [peptide 2: benzoyl-ZIZITGPHEEYK(FITC)-NH2],Kd,[5],224 nM
"acyl-[Tle]I[Tle]ITGPHEEYK(FITC″)-NH2 (reading uncertain; also: N-terminal acyl: halogenated and/or alkylated benzoyl, not named, printed as peptide 8: acyl-ZIZITGPHEEYK(FITC)-NH2) [peptide 8: acyl-ZIZITGPHEEYK(FITC)-NH2]",Kd,[5],74 nM
"XIXITQHLSKQRRRRXF (not fully specified; N-terminal DCNA (2,3-dichlorisonicotinamide; Table 8 prints DCN); Tle at 1; Bhv = L-β-hydroxyvaline at 3 (Table 8 prints Hva); D-Leu; miniPEG; Lys side chain carrying cyclo-(Gln-(D-Arg)-Arg-(D-Arg)-Arg-(2-Nal)-(D-Phe)); C-terminal amide, also called CN103; compound 43)",% Binding,[6],97.6%
same,IC50,[7],223 nM
same,IC50,[4],223 nM
"acyl-[Tle]I[Tle]ITGPHEEYK(FITC″)-NH2 (reading uncertain; also: N-terminal acyl: halogenated and/or alkylated benzoyl, not named, printed as peptide 7: acyl-ZIZITGPHEEYK(FITC)-NH2) [peptide 7: acyl-ZIZITGPHEEYK(FITC)-NH2]",Kd,[5],32 nM
"XIXITQHLSXKFXRRRRQ (not fully specified; sequence of peptide 14 (Dcb-ZIZIT-Gln-His-leu-Ser) with cyclic CPP9, cyclo(fΦRrRrQ), attached to the C-terminus through an amide bond and a βAla-Lys linker; Z = Tle; D-Leu, A biotinylated form was used in the macrophage experiment) [CNI93]",fold lower CN-binding affinity (relative to peptide 14),[8],8 fold
same,IC50,[9],127 nM
XIXITQHLSKQRRRRXF (not fully specified; N-terminal DCNA; Tle; Psa = L-penicillamine sulfonic acid; D-Leu; miniPEG; Lys side chain carrying cyclo-(Gln-(D-Arg)-Arg-(D-Arg)-Arg-(2-Nal)-(D-Phe)); C-terminal amide),IC50,[4],107 nM
"XIXITQHLSKQRRRRXF (not fully specified; N-terminal DFNA (2,3-difluoroisonicotinamide); Tle; Bhv = L-β-hydroxyvaline; D-Leu; miniPEG; Lys side chain carrying cyclo-(Gln-(D-Arg)-Arg-(D-Arg)-Arg-(2-Nal)-(D-Phe)); C-terminal amide)",IC50,[4],73.5 nM
"{Benzoyl(2,3-Cl2)}-[Tle]I[Tle]ITGPHEEYK(FITC″)-NH2 [peptide 9: Dcb-ZIZITGPHEEYK(FITC)-NH2]",Kd,[5],41 nM
"[Tle]I[Tle]ITGPHEEYK(FITC)-NH2 (not fully specified (N-terminus); printed as acyl-ZIZITGPHEEYK(FITC)-NH2; also: N-terminal acyl group unspecified (halogenated/alkylated benzoyl, drawing only)) [peptide 11: acyl-ZIZITGPHEEYK(FITC)-NH2]",Kd,[5],77 nM
"XIXITQHLSXKQRRRRXF (not fully specified; N-terminal DCB (2,3-dichlorobenzoyl); Tle at 1 and 3; D-Leu; β-Ala; Lys side chain carrying cyclo-(Gln-(D-Arg)-Arg-(D-Arg)-Arg-(2-Nal)-(D-Phe)); C-terminal amide, It is therefore kept as a separate molecule)",IC50,[7],857 nM
"XIXITQHLSKQRRRRXF (not fully specified; N-terminal DCNA (2,3-dichlorisonicotinamide; Table 8 prints DCN, 2,3-dichloro-4-pyridinyl); Tle at 1 and 3; D-Leu; miniPEG; Lys side chain carrying cyclo-(Gln-(D-Arg)-Arg-(D-Arg)-Arg-(2-Nal)-(D-Phe)); C-terminal amide, also called compound 41; 41)",IC50,[7],184 nM
same,IC50,[4],184 nM
cyclohexylcarbonyl-[Tle]I[Tle]ITGPHEEYK(FITC″)-NH2 [peptide 4: cyclohexylcarbonyl-ZIZITGPHEEYK(FITC)-NH2],Kd,[5],207 nM
XXXITQHLSKQRRRRXF (not fully specified; N-terminal DCNA; Tle; Chg = L-cyclohexylglycine; Bhv = L-β-hydroxyvaline; D-Leu; miniPEG; Lys side chain carrying cyclo-(Gln-(D-Arg)-Arg-(D-Arg)-Arg-(2-Nal)-(D-Phe)); C-terminal amide),IC50,[4],45.6 nM
"{Benzoyl(2,3-Cl2)}-[Tle]I[Tle]ITY[dE][Phe(4-F)]G[βAla]K(FITC) [peptide 13: Dcb-ZIZIT-Tyr-glu-Fpa-Gly-βAla-Lys (FITC)]",Kd,[5],12 nM
Ac-GPHP[Tle]I[Tle]ITGPHEEYK(FITC″)-NH2 [peptide 1: Ac-GPHPZIZITGPHEEYK(FITC)-NH2],Kd,[5],92 nM
"XIXITYEXGAKFXRRRRQ (not fully specified; sequence of peptide 13 (Dcb-ZIZIT-Tyr-glu-Fpa-Gly) with cyclic CPP9, cyclo(fΦRrRrQ), attached to the C-terminus through an amide bond and a βAla-Lys linker; Z = Tle; D-Glu; Fpa = …) [CNI88]",IC50,[9],426 nM
"{Benzoyl(2,3-Cl2)}-[Tle]I[Tle]ITQH[dL]S[βAla]K(FITC″) (also called FITC-labeled peptide 14) [peptide 14: Dcb-ZIZIT-Gln-His-leu-Ser-βAla-Lys (FITC)]",Kd,[5],9.1 nM
"{Benzoyl(2,3-Cl2)}-[Tle]I[Tle]ITQH[dL]H[βAla]K(FITC″) [peptide 15: Dcb-ZIZIT-Gln-His-leu-His-βAla-Lys (FITC)]",Kd,[5],4.7 nM
"[Tle]I[Tle]ITGPHEEYK(FITC)-NH2 (not fully specified (N-terminus); printed as acyl-ZIZITGPHEEYK(FITC)-NH2; also: N-terminal acyl group unspecified (halogenated/alkylated benzoyl, drawing only)) [peptide 10: acyl-ZIZITGPHEEYK(FITC)-NH2]",Kd,[5],189 nM
"{Benzoyl(2,3-Cl2)}-[Tle]I[Tle]IT[miniPEG]K(FITC′) [peptide 12: Dcb-ZIZIT-miniPEG-Lys (FITC)]",fold decrease in binding affinity (relative to peptide 9),[10],17 fold
same,Kd,[5],700 nM
cyclopentylcarbonyl-[Tle]I[Tle]ITGPHEEYK(FITC″)-NH2 [peptide 3: cyclopentylcarbonyl-ZIZITGPHEEYK(FITC)-NH2],Kd,[5],357 nM
"XXXITQHLSKQRRRRXF (not fully specified; N-terminal DFNA (2,3-difluoroisonicotinamide); Tle; Chg = L-cyclohexylglycine; Psa = L-penicillamine sulfonic acid; D-Leu; miniPEG; Lys side chain carrying cyclo-(Gln-(D-Arg)-Arg-(D-Arg)-Arg-(2-Nal)-(D-Phe)); C-terminal amide)",IC50,[4],96.5 nM
